Article doi:10.1101/2025.06.20.660723

Molecular target: Lhcb2 of Posidonia oceanica, threonine-phosphorylated (Posidonia oceanica (endogenous in leaves))

Substance: Lhcb1 of Posidonia oceanica (natural protein)
- stoichiometry N (Lhcb1 per Lhcb2): 2
